Test results: patent US7026443
Read-outs that look alike come from different tables or passages of the source.

Experiments:
[1] = molecular target: HLA-A*0201 (human); assay: competition with a 125I-labelled probe peptide for purified HLA-A*0201, gel filtration
[2] = molecular target: HLA-A*0301 (human); assay: competition with 125I-labelled standard probe peptide for purified HLA-A*0301, gel filtration
[3] = molecular target: HLA-A*1101 (human); assay: competition binding assay; purified HLA-A*1101, unlabeled peptide against 125I-labeled probe peptide, gel filtration
[4] = molecular target: HLA-A*0201 (purified HLA class I molecule) (human); assay: competition with 125I-labeled standard peptide for purified HLA-A*0201, gel filtration; ratio to the standard peptide
[5] = molecular target: purified HLA-A*0201 molecules (human)
[6] = molecular target: HLA-A*0101 (human)
[7] = molecular target: HLA-A*0301 (human)
[8] = molecular target: HLA-A*0301 (human); assay: competition with a 125I-labelled standard peptide for purified HLA-A*0301, bound and free separated by gel filtration
[9] = molecular target: HLA-A*0201 (human); assay: competition with 125I-labelled standard peptide on purified HLA, gel filtration; conditions: remark: other sources report otherwise
[10] = molecular target: HLA-A*0203 (human); assay: as above; conditions: remark: other sources report otherwise
[11] = molecular target: HLA-A*0206 (human); assay: as above; conditions: remark: other sources report otherwise
[12] = molecular target: HLA-A*2402 (human); assay: inhibition of 125I-labelled standard peptide binding to purified HLA-A*2402, gel filtration
[13] = molecular target: HLA-A*0301 (human); assay: competition with 125I-labelled standard peptide for purified HLA-A*0301, gel filtration
[14] = molecular target: HLA-A*1101 (human); assay: inhibition of 125I-labeled standard peptide binding to purified HLA-A*1101, gel filtration
[15] = molecular target: HLA-B*0702 (human)
[16] = molecular target: HLA-B*3501 (human)
[17] = molecular target: HLA-B*5101 (human)
[18] = molecular target: HLA-B*5301 (human)
[19] = molecular target: HLA-B*5401 (human)
[20] = molecular target: HLA-A*1101 (human); assay: competition with 125I-labelled standard probe peptide for purified HLA-A*1101, gel filtration
[21] = molecular target: HLA-A*0301 (human); assay: competition of unlabeled peptide against 125I-labeled standard probe peptide for purified HLA-A*0301, gel filtration
[22] = molecular target: HLA-A*0301 (human); assay: competition with 125I-labelled probe peptide for purified HLA, gel filtration; conditions: scale: ratio
[23] = molecular target: HLA-A*1101 (human); assay: as above; conditions: scale: ratio
[24] = molecular target: HLA-A*0301 (human); assay: competition with 125I-labeled standard peptide for purified HLA-A*0301, gel filtration
[25] = molecular target: HLA-A*1101 (human); assay: competition with 125I-labeled standard peptide for purified HLA-A*1101, gel filtration; conditions: scale: ratio

AIFGVNPTI (modifications not checked) [HPV18 E1 246 peptide … (SEQ ID NO: 3274)]
relative binding ratio (IC50 of standard peptide / IC50 of test peptide) (ratio to standard peptide) [1]: 0.0021

EGTGCNGWF (modifications not checked) [HPV45 E1 peptide … (position 10, 9 amino acids)]
binding affinity ratio (IC50 of standard peptide / IC50 of test peptide) (ratio to standard peptide) [2]: 0.0008

EGTGCNGWFY (modifications not checked) [HPV31 E1 position 10 peptide … (SEQ ID NO: 41699)]
binding affinity ratio (relative to the standard peptide) [3]: 0.0002

CLDCKWGVLI (modifications not checked) [HPV45 E1 peptide … (position 259, 10 amino acids)]
relative binding ratio (IC50 of standard peptide / IC50 of test peptide) [4]: 0.0002

SLACSWGMV (modifications not checked) [HPV31 E1 peptide … (position 246, 9 amino acids)]
relative binding ratio (IC50 of standard peptide / IC50 of test peptide) [5]: 0.082

DCATMCRHY (modifications not checked) [HPV16 E1 peptide … (position 404, 9 amino acids)]
relative binding ratio (IC50 of standard peptide / IC50 of test peptide) (ratio to standard peptide) [6]: 0.0011
relative binding ratio (IC50 of standard peptide / IC50 of test peptide) (ratio to standard peptide) [7]: 0.0001

LSFVCPWCA (modifications not checked) [HPV45 E7 peptide … (position 95, 9 amino acids)]
relative binding ratio (IC50 of the standard peptide / IC50 of the test peptide) [8]: 0.0005

TLGIVCPI (modifications not checked) [HPV16 E7 86 TLGIVCPI]
binding affinity ratio (IC50 of standard peptide / IC50 of test peptide) [9]: 0.15
binding affinity ratio (IC50 of standard peptide / IC50 of test peptide) [10]: 0.0005
binding affinity ratio (IC50 of standard peptide / IC50 of test peptide) [11]: 0.54

CMCCKCEARI (modifications not checked) [… (HPV18 E7, position 63, 10 amino acids)]
relative binding ratio (IC50 of standard peptide / IC50 of test peptide) [12]: 0.0001

GMVVLLLVR (modifications not checked) [HPV16 E1 272 …]
binding affinity ratio (IC50 of standard peptide / IC50 of test peptide) (ratio to standard peptide) [13]: 0.0036
relative binding ratio (IC50 of standard peptide / IC50 of test peptide) [14]: 0.0082

QPFILYAHI (modifications not checked) [HPV18 E1 263 peptide …]
binding affinity ratio (IC50 of standard peptide / IC50 of test peptide) [15]: 0.0002
binding affinity ratio (IC50 of standard peptide / IC50 of test peptide) [16]: 0.0003
binding affinity ratio (IC50 of standard peptide / IC50 of test peptide) [17]: 0.21
binding affinity ratio (IC50 of standard peptide / IC50 of test peptide) [18]: 0.0017
binding affinity ratio (IC50 of standard peptide / IC50 of test peptide) [19]: 0.0034

PLCPEEKQR (modifications not checked) [HPV31 E6 peptide … (position 109, 9 amino acids)]
relative binding ratio (IC50 of standard peptide / IC50 of test peptide) (ratio to standard peptide) [20]: 0.0005
relative binding ratio (IC50 of standard peptide / IC50 of test peptide) (ratio to standard peptide) [21]: 0.0002

EGTGCNGWF (modifications not checked) [HPV18 E1 peptide … (position 10, 9 amino acids)]
relative binding ratio (IC50 of standard peptide / IC50 of test peptide) (ratio to standard peptide) [8]: 0.0008

GDTPEWIQR (modifications not checked) [HPV16 E1 334 …]
binding affinity ratio (IC50 of standard peptide / IC50 of test peptide) (ratio to standard peptide) [13]: 0.0008
relative binding ratio (IC50 of standard peptide / IC50 of test peptide) [14]: 0.0002

HYSDSVYGDTL (modifications not checked) [… (HPV18 E6, position 80, 11 amino acids)]
relative binding ratio (IC50 of standard peptide / IC50 of test peptide) [12]: 0.0069

WLQPLADAK (modifications not checked) [HPV16 E1 peptide … (position 509, 9 amino acids)]
binding affinity ratio (relative to standard peptide) [22]: 0.0005
binding affinity ratio (relative to standard peptide) [23]: 0.0002
relative binding ratio (IC50 of standard peptide / IC50 of test peptide) [24]: 0.0005
relative binding ratio (A*1101) [25]: 0.0002

EGTGCNGWFY (modifications not checked) [HPV18 E1 peptide … (position 10, 10 amino acids)]
relative binding ratio (IC50 of standard peptide / IC50 of test peptide) (ratio to standard peptide) [8]: 0.0005
